Here are results for 24 sequences from the DeepSol protein solubility set.

A short description of the series: soluble on expression in E. coli; label from the status in PepcDB or PDB records.
Take “MTNQLPKISEAELEIMKVLWLKSPQTANEIIEELEDPMDWKPKTIRTLINRLVQKEAVSYHQDKGRMYAYYPLVSQDNYLQVETKSLLKRFCGAAFKPLLVNFLKEEKLSSEDINELKRLLDEKTEENKRKD”: the “soluble on expression in E. coli” value is “not soluble”.

“MSLKIKHEHIRMAMNAWAHPDGEKVPAAEITRAYFELGMTFPELYDDSHPEALARNTQKIFRWVEKDTPDAVEKIQALLPAIEKSMPPLLVARMRSHSSAYFRELVETRERLVRDADDFVAVAIAGFNQMNRGGPAGNIVAVHEGHHHHHH”: the “soluble on expression in E. coli” value is listed as “soluble”.

As to “GSGLSAQDISQPLQNSFIHTGHGDSDPRHCWGFPDRIDELYLGN”, the “soluble on expression in E. coli” value was “soluble”.

As to “MGHHHHHHSHMAAPGLRLGAGRLFEMPAVLERLSRYNSTSQAFAEVLRLPKQQLRKLLYPLQEVERFLAPYGRQDLHLRIFDPSPEDIARADNIFTATERNRIDYVSSAVRIDHAPDLPRPELEENIFISG”, the “soluble on expression in E. coli” value was “not soluble”.

As to “MGSDKIHHHHHHMVVIISAHNIATLEYQPMPKISDSGEPVEGVQAVALTLKILEALANARSTVGVTELSKQIGAGKARVYRHLQTLVTLGYALKDEESERYSTGPQLLRLSHTLSYRLDVVEAARLPARKLSDATGLTAVVARVEGDAIVVVHAEYSRADTMRSPRIGTTMQFHYTALGKIALAFGPAELRSRVLNEPLEQLTAYTITDRRDLMKKLEKIQELGWASSANEGMVGFNALAAPITDAHERLVGMICVVGSIKQLPATPPQNYLDALLSTADDISAYFGHVSRMPS”, the “soluble on expression in E. coli” value was “not soluble”.

As to “MAEKIKINNNVFIYPMPVTLLGANVKGKANLMALGWVSRVNANPPMLGVGVNKSHYTPEGIAENGSFSVNFPYSGMVKKTDYCGLVSGEKVDKSGLFEVFYGELKTAPMIKECTLNLECRVVETLEFPTNYFFVGEIIAAYSEEQYLIQGKPDIKKMDPLLLTMPDNSYWTVGDYAGAALKTGKSLMEKRHHHHHH”, the “soluble on expression in E. coli” value was “soluble”.

As for “MKLIVVTTPTFFVEEDKIITALFEEGLDILHLRKPETPAMYSERLLTLIPEKYHRRIVTHEHFYLKEEFNLMGIHLNARNPSEPHDYAGHVSCSCHSVEEVKNRKHFYDYVFMSPIYDSISKVNYYSTYTAEELREAQKAKIIDSKVMALGGINEDNLLEIKDFGFGGAVVLGDLWNKFDACLDQNYLAVIEHFKKLKKLADLEHHHHHH”, the “soluble on expression in E. coli” value is “soluble”.

Take “MSLKKIANELGLSSTTVSRALNGYDDVAAETRERIIDAAKRLGYQPNSLARRLKMGRTDAIALAYPSRPRVLNNSTFLEMISWIGIELGKRGLDLLLIPDEPGEKYQSLIHLVETRRVDALIVAHTQPEDFRLQYLQKQNFPFLALGRSHLPKPYAWFDFDNHAGASLAVKRLLELGHQRIAFVSTDARISYVDQRLQGYVQTMSEAGLMPLAGYLQKADPTRPGGYLAASRLLALEVPPTAIITDCNMLGDGVASALDKAGLLGGEGISLIAYDGLPDDSLLDIAVTPIVQNTRTSVGKQIASMICDLLGGKDPKELQVLWQPEIGEGETEGHHHHHH”: the “soluble on expression in E. coli” value is reported as “soluble”.

With “MEELQYFPYERLRPNQREFIEIVKEAVKRGENLIVEAPTGFGKTISVLAGVLPYAISLGYKVVYLARTHKQMDRVIEELKKIRERNEVSGIEFRSRRDLCLHSYIQTFVQDAYTSMIVCKTLRKLGKCPFFENIKEKRDRVEEIVRFFLNSPPFPHEVLEYSELLELCPYEITKKIGEKANVIVASYLYMISPPIRQAFLENLGVDYSDLIVIFDEAHNLPDQAISALSDRLSIRSIERAIKEAEEYGEKDIENFLSILLRGLEILYKEKLENYESEEVPIRPEEVFLHVASVLGWSGREIGMMLEDMIEVGDAIREDRIERNLPPRSYVGRVGEFLWNWLALREREDYLHLFTKERGLALELVALDPSVALEFLEEVHSAIFMSGTLSPLEAFRDIIGVKAELKKFPRMIKRENAIVLVARDVSTRGIERSPSLYRRISEYIFEAVRNTPKNVGVFTASYEVLEGILSTNVHIKIEEEIGKKVFIEKRDAPSRENDEMIRAFKEESKGKGAVLFGVMGGRNSEGQDYSGDEMNGVVLVGIPYARPTPRVQAQIRYFEKKFPGKGRYYGYVLPAHRKLTQAAGRVHRSEEEKGSIVILDYRVLWKSVKKDLPDWMVETMIPVTLPHYENKTLEHHHHHH”, the “soluble on expression in E. coli” value is reported as “not soluble”.

Take “GPGSMQAARLPTRIATGDGEDAPQTPPVHAPATPAATDEQETDQPQQAVGEATTPADRAGFQPPSAEALATRQSRNSAGAEKMGGGQRLRDHTTAQRRLMQDYRTFQKNMAEGTSSNITALPVDGDFFHWHAVISGPCDTPWEGGLFKLDLIFGDDYPFSPPKVRFRTKDVFHPNVYVDGNICMDTLKSSWQSSLNLEALLISIQSLLSDPNPLSAANGAAARLLTENRSAYDEKIRALVEESLEQSFSMDDDSDDAEVDEEAV”: the “soluble on expression in E. coli” value is recorded as “soluble”.

Take “MRLIKVIITSQKEYSMKKLLSLSAITLSVLAPSAFAAQEVNVYSYRQPFLIEPMFAEFTKETGIKVNVKFAKEGIAEKLAQEGEYSPADVILTSEFSRLFELTEKGLTQPLDSKVIEENIPAQYRDSGDEWFALTQRTRSVYSSRDRLGKLGDDFDYMDLAKPEFKGKICTRSGKHPYNIALVASIIANHGEAEAKAWLEGVKANLARKPQGNDRDQVRAIKEGLCDVSLGNSYYLGAMLNDQEQKSWAEAVYINFPGQNVQGTHVNVSGMAMAKYSPNRENAQKLMEFLTGETAQKMYAEVNYEYPVKPGVQRSALVESWGEFKADSLPLEKIADNNAAAIKLIDEVKFDL”: the “soluble on expression in E. coli” value is given as “not soluble”.

“GQYKIQIFEKGDFSGQMYETTEDCPSIMEQFHMREIHSCKVLEGVWIFYELPNYRGRQYLLDKKEYRKPIDWGAASPAVQSFRRIVE”: the “soluble on expression in E. coli” value is listed as “soluble”.

As to “SLSSPGDIPAEDFADHVRKNERDSNCGFADEYQQLSLVGHSQSQMVASASENNAKNRYRNVLPYDWSRVPLKPIHEEPGSDYINASFMPGLWSPQEFIATQGPLPQTVGDFWRLVWEQQSHTLVMLTNCMEAGRVKCEHYWPLDSQPCTHGHLRVTLVGEEVMENWTVRELLLLQVEEQKTLSVRQFHYQAWPDHGVPSSPDTLLAFWRMLRQWLDQTMEGGPPIVHCSAGVGRTGTLIALDVLLRQLQSEGLLGPFSFVRKMRESRPLMVQTEAQYVFLHQCICGSSNSQPRPQPRRKSRMRMSKTSSTRTWPPSRPTSWRSK”, the “soluble on expression in E. coli” value is listed as “soluble”.

For “MILHPRPSPIAAAMYQLRDIGVDAIILHGPSGCCFRTARLLEIDGIRVFTSAMGENDFIFGAMDKLRDVIAEVLEYLKKETPKSEKYKIGIVGTCASMIIGEDLESLIDDFDDIIIPVDIHSGLVDNTVGAIRAMDGALNAGLIDYSEYLEHHHHHH”, the “soluble on expression in E. coli” value is given as “not soluble”.

Turning to “MAGDPMVIIHMIPKKIHYCWFGKGKHSKEMKKCIKSWKKYCPDYEIIEWNESNFDISAHPFVKAAYEAKAWAFVSDYARLKIIYDYGGVYLDTDVELIRNIDFLLQNDAYLGVEAQDWLCNTGLGFGAKKHNSIIAEMLQIYNEIEFDNSKKSTIACPYLNTAVVEKIGYKKQDRIQQLDKITIYPPKYFDPFPSGGSVSILICDETVSIHHYSASWGSWKNKLKRRIARFIGPKLTFKLKKLKIFLITRKLEHHHHHH”, the “soluble on expression in E. coli” value is on record as “soluble”.

As to “MGSDKIHHHHHHMNILLVDDDRFIIEALREKINWAKLHIDIVYVAYSLTQAQNIIREHPIDLMISDIEMPQGSGLELLSWIRNEKYDIKTIFLTNYADFNYAQKAIELQSFEYYLKPINFEKLEFIIQKAISKIENHNLNGKNDSLLQIEDNFWYDYLRKPQISRIDELENIASKQDFILKQHQYFFLAVLTINLNEEDYSVETPSWTSQLKRELQRISQPSYKLISLFKMESQVDQYVCLFRVDSSKRSDKLAYEIHSQISNNFSKYSNIIYKSCHKISDILFHTKELYTYNEQYVSYWNTITCVPHSFPTSFKTETLSITFLDTLSEYELREKINSLAYNSQIPTFTLQQILLDWTQQIGIYLDQNGISAHKLFQNSTHDFLFQRRFHSIESFQDYFDYYWSHAKKFATNIENQKNSIQRIVEYIDHHYYEDINRSILADVVYLSADHLARIFKKETGETLVKYITDKRINAAKSLLSQTNISISQVSCQVGYDNYSYFTKIFKQRTGLSPGDYRKTYQNKM”, the “soluble on expression in E. coli” value is given as “not soluble”.

Turning to “SSLVRRIISTAKAPAAIGPYSQAVLVDRTIYISGQLGMDPASGQLVPGGVVEEAKQALTNIGEILKAAGCDFTNVVKATVLLADINDFSAVNDVYKQYFQSSFPARAAYQVAALPKGGRVEIEAIAVQGPLTTASL”, the “soluble on expression in E. coli” value is “soluble”.

As to “MAPDLSGTWYVLEGDPGEHLVVEALGERLSGIWTSRELAEAFLAHHPHLGMRVSALESRALKEAYLRALGMLQVEAVMVDYRPGTHRAQVARVKDLLEEVRRA”, the “soluble on expression in E. coli” value is given as “soluble”.

As to “SKLNQNTMLVGKKVVLVPYTSEHVPRYHEWMKSEELRHLTASEQLTLQQEYEMQCSWCEDEDKCTFIVLDAEKWQAQPRPPEESCMVGDVNLFLTDLEDPTLGEIEVMIAEPSYRRQGLGTEASLLIMSYGVTKLGLTKFEAKIGQENEPSIRMFQKLHFKQVAMSNVFQEVTLRLAVSEPERKWILEQTSHMEERPYRTRKAEPVTATLSEQKSWNCPLPRPDGCMGDTSAVSSVCARLS”, the “soluble on expression in E. coli” value is “soluble”.

For “MAKAKAAPKKSVKKVEKSPSPEDSGIRRSGRQRIEMGKYEEGFDRHELEMVLRASLNEANQQGIKVPSTSSTASASAPAPVKKEIKPKNKPAPVPVVEKKRTIPSKKERDAERKALAAAAAAAATLTSMKKAPIKKSVPSTSSEADSTTPKKKGSAVKAKKVTIKTPSSEPAELTSSAAPVPVAVPEVPTAEATTSATTTPTTTNATIVKKEETKAEQPVKKVVKKKAISKKPPTTTNVTSTSDSSAAAAAAKKKKKPVVPKLSTKPTKQYLENEKQMRLMATQKCTYKEPKSLEKRIYFIPFYSLKLAKKNDQISYLNLISFIHKNLFFNF”, the “soluble on expression in E. coli” value was “soluble”.

For the sequence “MESEGEAQMFADCDQKTVKQTAAKPMSSKKKQDFQALASDRQLAIVFSSMIQVSEAFDYGIGNPEYFVRISMTEEEADIAKENLESIKLENKSLKKQNSEAVALLQKTRNQDMSRIEIQQLTENRAGFFETADSMIKLINQVTPKNAKKTRQQLDQLKKQYTQYSAESIKIMNSIVKKQKADKASFERHLEALLQKQPGQQVRSELYLEHHHHHH”, the “soluble on expression in E. coli” value was “soluble”.

In the case of “MEYFNVGKIVNTQGLQGEMRVLSVTDFVEERFKKGQVLALFDEKNQFVMDIEIASHRKQKNFDIIKFKGMYHINDIEKYKGFTLKVAEDQLSDLKDGEFYYHEIIGLDVYEGEELIGKIKEILQPGANDVWVVERHGKRDLLLPYIPPVVLEVDLSNQRVQVELMEGLDDEDLEHHHHHH”, the “soluble on expression in E. coli” value is recorded as “soluble”.

Regarding “MQSVDVAIVGGGMVGLAVACGLQGSGLRVAVLEQRVPEPLAVDALPQLRVSAINAASEKLLTRLGVWQDILARRASCYHGMEVWDKDSFGHISFDDQSMGYSHLGHIVENSVIHYALWNKAQQSSDITLLAPTELQQVAWGENETFLTLKDGSMLTARLVIGADGANSWLRNKADIPLTFWDYQHHALVATIRTEEPHDAVARQVFHGEGILAFLPLSDPHLCSIVWSLSPEEAQRMQQASEDEFNRALNIAFDNRLGLCKVESARQVFPLTGRYACQFAAHRLALVGDAAHTIHPLAGQGVNLGFMDAAELIAELKRLHRQGKDIGQYIYLRRYERSRKHSAALMLAGMQGFRDLFSGANPAKKLLRDIGLKLADTLPGVKPQLIRQAMGLNDLPEWLRLEHHHHHH”, the “soluble on expression in E. coli” value is reported as “soluble”.

As to “MNIYAFDFDEIESQEDFYRDFSQTFGLAKDKVRDLDSLWDVLMNDVLPLPLEIEFVHLGEKTRRRFGALILLFDEAEEELEGHLRFNVRH”, the “soluble on expression in E. coli” value is recorded as “not soluble”.
